Reference: patent publication US20110300147A9, “Inhibiting tumor cell invasion, metastasis and angiogenesis” (The Scripps Research institute, priority 2005, published 2011)
pEC50: −log10 of the molar value. Like-named read-outs stand apart in the source and are kept apart here. Numbered stars: 1 amine (or outer) side, 2 acyl side, 3 side chain; on linkers, the order of the positions; unused ones are H or OH. Peptide text beside a SMILES is read from it. * marks the point of attachment. Doxorubicin(3'-N) = COc1cccc2c1C(=O)c1c(O)c3c(c(O)c1C2=O)C[C@@](O)(C(=O)CO)C[C@@H]3O[C@H]1C[C@H](N*)[C@H](O)[C@H](C)O1; Suc = O=C(CCC(=O)[*:2])[*:1]

Legend:
[1] = test system: control 293 cells; assay: WST-1 cytotoxicity assay, control 293 cells; conditions: Homo sapiens, HEK293, 48 h
Experimental: (§1) Cytotoxic assays. The WST-1 cell proliferation reagent (Roche Molecular Chemicals, Germany) was used to determine cell proliferation by quantification of cellular metabolic activity. Control 293 cells and legumain+ 293 cells were cultivated in microtiter plates (5×10^3 cells per well in 100 μl) and were incubated with serial concentrations of legubicin or doxorubicin for 48 h. Subsequently, 10 μl of WST-1 solution (1 mg/ml WST-1, 25 μM -methyldibenzopyrazine methyl sulfate) was added per well, and mixtures were incubated for an additional 4 h. The tetrazolium salt WST-1 (4-[3-(4-lodophenyl)-2-(4-nitrophenyl)-2H-5-tetrazolio-1,3-benzene disfonate) was cleaved by the mitochondrial succinate-tetrazolium-reductase system to formazan in cells which directly correlates to the number of metabolically viable cells in the culture. The amount of formazan salt was quantified in three replicates by absorbance at 450 nm using a micro-plate reader (Molecular Devices, Palo Alto, Calif.).
(§2) Cytotoxicity assays. The WST-1 cell proliferation reagent (Roche Molecular Chemicals, Germany) was used to determine cell proliferation by quantization of cellular metabolic activity. […] The amount of formazan salt was quantified in three replicates by absorbance at 450 nm using a micro-plate reader (Molecular Devices, Palo Alto, Calif.).

[2] = test system: legumain+ 293 cells; assay: WST-1 cytotoxicity assay, legumain+ 293 cells
Experimental: as §1, §2

[3] = test system: HTP cells; assay: WST-1 cytotoxicity assay, HTP cells; assay type: cell-based; conditions: 50% cell death, 48 h
Experimental: Cytotoxicity assays. The WST-1 cell proliferation reagent (Roche Molecular Chemicals, Germany) was used to determine cell proliferation by quantization of cellular metabolic activity. […] Subsequently, 10 μl of WST-1 solution (1 mg/ml WST-1, 25 μM -methyldibenzopyrazine methyl sulfate) was added per well, and mixtures were incubated for an additional 4 h. The tetrazolium salt WST-1 (4-[3-(4-Iodophenyl)-2-(4-nitrophenyl)-2H-5-tetrazolio-1,3-benzene disfonate) was cleaved by the mitochondrial succinate-tetrazolium-reductase system to formazan in cells in direct correlation with the number of metabolically viable cells in the culture. The amount of formazan salt was quantified in three replicates by absorbance at 450 nm using a micro-plate reader (Molecular Devices, Palo Alto, Calif.). All results were derived from replicate experiments with similar results.

[4] = test system: CT26 murine colon carcinoma; assay: CT26 syngeneic murine colon carcinoma model; assay type: in vivo, Balb/c mice
Excerpt: Animal models. […] Balb/C mice aged 4 to 6 weeks from the breeding colony were inoculated with 500,000 syngeneic CT26 tumor cells per site subcutaneously in the back. […] Treatment was repeated at 2 day intervals. The human 293 tumor models were generated in WEHI nude mice (The Scripps Research Institute breeding colony). […] Tumor growth and physical signs were monitored daily including any gross evidence of tumor necrosis, local tumor ulceration as well as evidence of toxicity including mobility, response to stimulus, eating, and weight of each animal. These procedures have been reviewed and approved by the Institutional Animal Care and Use Committee at The Scripps Research Institute. The work was conducted in The Scripps Research Institute facilities which are accredited by the Association for the Assessment and Accreditation of Laboratory Animal Care. The Scripps Research Institute maintains an assurance with the Public Health Service, is registered with the United States Department of Agriculture and is in compliance with all regulations relating to animal care and welfare.
Animal models. […] Treatment was three times per week for two weeks.

[5] = test system: control 293 cells; assay: Dox and LEG-3 uptake assay, cells not expressing legumain
Experimental: Dox and LEG-3 uptake assay. Legumain^+ 293 cells or control 293 cells (2.5×10^5 cells/well) were seeded in six-well plates. The culture plates were then incubated for 24 h at 37° C. and 5% CO2, and the medium in each well was replaced with 2 ml of serum-free, antibiotic-free medium containing various concentrations of Dox or LEG-type prodrug compounds. The cells were incubated 1.5 h then washed three times with 2 ml of cold PBS. At this point, cell nuclear positivity for Dox could be analyzed by fluorescent microscopy. For quantitative assays the cells were then lysed by adding 0.5 ml of water and gently rotated on an orbital shaker for 5 min at room temperature. The lysed cells were added to 1.5 ml acidified ethanol, and incubated at 4° C. in the dark for 3 h. Total Dox and LEG content was measured fluorometrically using a Perkin-Elmer LS-50-B spectrofluorometer (excitation: 470 nm; emission: 590 nm). Fluorescence intensity was translated to drug concentration by use of a standard curve prepared from Dox and LEG solutions in cell lysates that were not previously exposed to the drug. Results are expressed as the mean±SD of at least three replicates for each experiment.

[6] = in vivo; set-up: species or system Balb/c male mice; conditions: male, Balb/c, mouse
[7] = gross toxicity (weight loss, death) of treated mice; assay type: in vivo
Experimental: Tumor growth and signs of physical discomfort were monitored daily. Such signs included any gross evidence of tumor necrosis, local tumor ulceration as well as evidence of toxicity including changes in the animal's mobility, response to stimulus, piloerection, eating, and weight. These procedures have been reviewed and approved by the Institutional Animal Care and Use Committee at The Scripps Research Institute. All the experiments were conducted in The Scripps Research Institute facilities which are accredited by the Association for the Assessment and Accreditation of Laboratory Animal Care. The Scripps Research Institute maintains an assurance with the Public Health Service, and is registered with the United States Department of Agriculture and is in compliance with all regulations relating to animal care and welfare.

[8] = mouse, in vivo, iv
[9] = test system: cardiac myocytes; conditions: for apoptosis of cardiac myocytes (TUNEL): treated mice
[10] = target: legumain (Homo sapiens, UniProt Q99538); assay: cleavage of LEG compounds by legumain; assay type: biochemical
Chain of legumain (Q99538 18-323, species assumed): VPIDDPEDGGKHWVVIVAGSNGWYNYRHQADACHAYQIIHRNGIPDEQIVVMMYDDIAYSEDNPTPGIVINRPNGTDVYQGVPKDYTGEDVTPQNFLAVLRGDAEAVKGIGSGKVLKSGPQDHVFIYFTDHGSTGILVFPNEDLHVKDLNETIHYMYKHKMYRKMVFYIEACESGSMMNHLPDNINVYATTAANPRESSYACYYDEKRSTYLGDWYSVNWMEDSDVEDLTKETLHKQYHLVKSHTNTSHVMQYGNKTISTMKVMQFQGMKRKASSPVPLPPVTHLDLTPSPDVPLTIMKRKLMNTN

[11] = test system: legumain expressing cells; assay: Dox and LEG-3 uptake assay, legumain expressing cells; assay type: cell-based, human; conditions: legumain expressing cells in culture
Excerpt: Dox and LEG-3 uptake assay.

[12] = tissue distribution in mice bearing CT26 colon carcinomas; assay type: in vivo; conditions: twelve hours post injection
Experimental: Tissue distribution. LEG compounds or Dox was injected i.p. into mice, 12 h later the animals were perfused and the Dox autofluorescence was measured following homogenization in 50% ethanol and then diluted with an equal volume of 50% ethanol containing 0.6 M HCl. Fluorescence measurements were obtained with excitation at 470 nm and emission at 590 nm, concentrations were derived by conversion from a Dox standard curve. Tissues from saline injected mice provided controls. Blood samples were to 0.75 ml with PBS, centrifuged, the pellets washed with PBS and Dox extracted with ethanol, 0.3 M HCl.
Legumain is selectively functional in the tumor microenvironment.

[13] = test system: peripheral blood leukocytes; assay: marrow toxicity, peripheral blood leukocyte counts; assay type: in vivo, Balb C mice; conditions: six times in twelve days
Experimental: Determination of marrow toxicity. […] On day 7, retro-orbital sinus blood samples were collected into 10 mM EDTA, and counted by hemocytometer after lysis of red blood cells with an acidified methyl violet solution.

[14] = plasma pharmacokinetics in mice bearing CT26 tumors; conditions: single intravenous bolus, MTD of Dox and molar equivalent of LEG-3, CT26 tumor mice

COc1cccc2c1C(=O)c1c(O)c3c(c(O)c1C2=O)C[C@@](O)(C(=O)CO)C[C@@H]3O[C@H]1C[C@H](N)[C@H](O)[C@H](C)O1 [Dox, doxorubicin, reference compound]
pEC50 [1]: 5.92 | cytotoxic effect on legumain+ 293 cells [2]: only slightly more resistant | pEC50 [3]: 5.82 | anti-tumor efficacy ([4]; doses approaching its maximum tolerable dose (MTD)): failed to produce similar anti-tumor efficacy | toxicity ([4]; i.p. 5 mg/kg three times at 2 day intervals): fatal | cell uptake [5]: rapidly entered cells | LD50 ([6]; ip): 17.2 µmol/kg | MTD ([6]; ip): 9.8 µmol/kg | LD50 at 5 days ([6]; ip, i.p. 5×): 3.4 µmol/kg | MTD at 5 days ([6]; ip, i.p. 5×): 2.8 µmol/kg | LD50 ([6]; iv): 25.8 µmol/kg | MTD ([6]; iv): 18.2 µmol/kg | LD50 at 5 days ([6]; iv, i.v. 5×): 5.1 µmol/kg | MTD at 5 days ([6]; iv, i.v. 5×): 3.2 µmol/kg | Average weight loss (%) ([7]; Dose 1.72 μmol/kg): 24% | Death (%) ([7]; Dose 1.72 μmol/kg): 35% | Average weight loss (%) ([7]; Dose 5.4 μmol/kg): 28% | Death (%) ([7]; Dose 5.4 μmol/kg): 75% | decline of plasma concentration [8]: very rapidly declined | apoptosis of cardiac myocytes (TUNEL) [9]: marked apoptosis

COc1cccc2c1C(=O)c1c(O)c3c(c(O)c1C2=O)C[C@@](O)(C(=O)CO)C[C@@H]3O[C@H]1C[C@H](NC(=O)[C@H](CC(C)C)NC(=O)[C@H](CC(N)=O)NC(=O)[C@@H](NC(=O)CCNC(=O)CCC(=O)O)[C@@H](C)O)[C@H](O)[C@H](C)O1 [LEG-2, N-Succinyl-β-alanyl-L-threoinyl-L-Asparaginyl-L-Leucyl-Doxorubicin]
in vivo tumoricidal activity ([4]; mice bearing CT26 tumors): demonstrable in vivo tumoricidal efficacy | cleavage by legumain [10]: are cleaved by legumain

COc1cccc2c1C(=O)c1c(O)c3c(c(O)c1C2=O)C[C@@](O)(C(=O)CO)C[C@@H]3O[C@H]1C[C@H](NC(=O)[C@H](CC(C)C)NC(=O)[C@H](CC(N)=O)NC(=O)[C@H](C)NC(=O)[C@H](C)NC(=O)CCC(=O)O)[C@H](O)[C@H](C)O1 [LEG-3] (Suc-AANL-{Doxorubicin(3'-N)})
cell uptake ([5]; cell cultures not expressing legumain): remained extracellular | cell uptake [11]: the end product Dox was found in cells | concentrations in cardiac, liver, kidney, spleen and lung tissues compared to Dox [12]: reduced | content in tumor tissues relative to Dox ([12]; CT26 tumors): more than 10 fold | LD50 ([6]; ip): > 197 µmol/kg | MTD ([6]; ip): > 197 µmol/kg | LD50 at 5 days ([6]; ip, i.p. 5×): > 197 µmol/kg | MTD at 5 days ([6]; ip, i.p. 5×): 98.7 µmol/kg | LD50 ([6]; iv): > 197 µmol/kg | MTD ([6]; iv): > 197 µmol/kg | LD50 at 5 days ([6]; iv, i.v. 5×): 197 µmol/kg | MTD at 5 days ([6]; iv, i.v. 5×): 74 µmol/kg | Average weight loss (%) ([7]; Dose 1.97 μmol/kg): 3% | Death (%) ([7]; Dose 1.97 μmol/kg): 0% | Average weight loss (%) ([7]; Dose 4.9 μmol/kg): 5% | Death (%) ([7]; Dose 4.9 μmol/kg): 0% | Average weight loss (%) ([7]; Dose 49.4 μmol/kg): 7% | Death (%) ([7]; Dose 49.4 μmol/kg): 0% | Average weight loss (%) ([7]; Dose 98.7 μmol/kg): 8% | Death (%) ([7]; Dose 98.7 μmol/kg): 10% | Average weight loss (%) ([7]; Dose 197.4 μmol/kg): 16% | Death (%) ([7]; Dose 197.4 μmol/kg): 50% | toxicity based on weight loss and mortality ([7]; xenograft bearing mice (FIG. 13E)): negligible | reduction of total WBC counts ([13]; 4.94 μmol/kg): no reductions | reduction of total WBC counts ([13]; 10-fold higher dose than 4.94 μmol/kg): only a slight reduction | histological evidence of cardiac toxicity ([9]; 49.4 μmol/kg): no histological evidence of cardiac toxicity | apoptosis of cardiac myocytes (TUNEL) [9]: not observed | decline of plasma concentration [14]: much slower
